These results are taken from paper PMC3365014, “Specific Recognition of p53 Tetramers by Peptides Derived from p53 Interacting Proteins” (PLoS ONE, 2012).

The target in experiment [1] is WS100B(61–75), fluorescein-labeled. The experiment can be described thus: fluorescence polarisation; fluorescence anisotropy at increasing NaCl; p53CTD titrated into 200 nM peptide; 10 mM sodium phosphate pH 7.2, 25°C; ln(Kd) against ln(NaCl activity) fit linearly and extrapolated to physiological ionic strength.
Experiment [2] addresses p53 monomer (Homo sapiens) (UniProt P04637). The following applies: cited from earlier work.

As a reminder, the Kd is the free concentration of one partner at which half of the binding sites on the other are occupied at equilibrium, for simple one-to-one binding.

With “p53 C-terminal domain (p53CTD, residues 293–393) (from UniProt P04637 293-393) (domain or fragment)”, in experiment [1], the Estimated physiological Kd was 19 µM.

With p53 monomer (from UniProt P04637), the Kd in experiment [2] was 1 nM.
